Changes are numbered by the printed parent chain. Names and notes keep the numbering of the source. Values joined by “and” are separate entries in the source; they are usually repeats but may differ in a detail not shown here. Equal values may be shown once.
Key:
[1] = biological target: CLPB-NBD (NBD-only variant, N-terminal ANK domain truncated) (human) (UniProt Q9H078); experiment: cryo-EM 2D classification
CLPB-NBD^E425Q (human) = CLPB-NBD^E425Q (human) (UniProt Q9H078); experiment: cryo-EM structure
CLPB^isoform1 (human) = experiment: cryo-EM 2D classification
SEC = biological target: the molecule itself; experiment: SEC
cryo-EM structure = biological target: the molecule itself; experiment: cryo-EM structure
[2] = biological target: the molecule itself; experiment: SEC + other: negative-staining EM

For “CLPB-NBD (NBD-only variant, N-terminal ANK domain truncated) (from UniProt Q9H078-2 1-677) (domain or fragment)”, the stoichiometry N [1] was 6 and 7.

With “CLPB-NBD^E425Q (from UniProt Q9H078-2 1-677) (domain or fragment)” the stoichiometry N (CLPB-NBD^E425Q (human)) was 6 and 7 and 9.

Molecule CLPB^isoform1 (natural protein) has a stoichiometry N (CLPB^isoform1 (human)) of 14.

B1: CLPB^Δ201-232 (natural protein)
chain: YSKSPSNKDAALLEAARANNMQEVSRLLSEGADVNAKHRLGWTALMVAAINRNNSVVQVLLAAGADPNLGDDFSSFKGCTALHYAVLADDYRTVKELLDGGANPLQRNEMGHTPLDYAREGEVMKLLRTSEAKYQEKQRKREAEERRRFPLEQRLKEHIIGQESAIATVGAAIRRKENGWYDEEHPLVFLFLGSSGIGKTELAKQTAKYMHKDAKKGFIRLDMSEFQERHEVAKFIGSPPGYVGHEEGGQLTKKLKQCPNAVVLFDEVDKAHPDVLTIMLQLFDEGRLTDGKGKTIDCKDAIFIMTSNVASDEIAQHALQLRQEALEMSRNRIAENLGDVQISDKITISKNFKENVIRPILKAHFRRDEFLGRINEIVYFLPFCHSELIQLVNKELNFWAKRAKQRHNITLLWDREVADVLVDGYNVHYGARSIKHEVERRVVNQLAAAYEQDLLPGGCTLRITVEDSDKQLLKSPELPSPQAEKRLPKLRLEIIDKDSKTRRLDIRAPLHPEKVCNTI
B1: binds (SEC).

B2: CLPB-N127 (human CLPB isoform 2 starting from the PARL cleavage site) (natural protein)
chain: YSKSPSNKDAALLEAARANNMQEVSRLLSEGADVNAKHRLGWTALMVAAINRNNSVVQVLLAAGADPNLGDDFSSVYKTAKEQGIHSLEVLITREDDFNNRLNNRASFKGCTALHYAVLADDYRTVKELLDGGANPLQRNEMGHTPLDYAREGEVMKLLRTSEAKYQEKQRKREAEERRRFPLEQRLKEHIIGQESAIATVGAAIRRKENGWYDEEHPLVFLFLGSSGIGKTELAKQTAKYMHKDAKKGFIRLDMSEFQERHEVAKFIGSPPGYVGHEEGGQLTKKLKQCPNAVVLFDEVDKAHPDVLTIMLQLFDEGRLTDGKGKTIDCKDAIFIMTSNVASDEIAQHALQLRQEALEMSRNRIAENLGDVQISDKITISKNFKENVIRPILKAHFRRDEFLGRINEIVYFLPFCHSELIQLVNKELNFWAKRAKQRHNITLLWDREVADVLVDGYNVHYGARSIKHEVERRVVNQLAAAYEQDLLPGGCTLRITVEDSDKQLLKSPELPSPQAEKRLPKLRLEIIDKDSKTRRLDIRAPLHPEKVCNTI
With B2 the “stoichiometry N” value (cryo-EM structure) was 14.

B3: CLPB^E425Q (Walker B mutant of CLPB-N127) (natural protein)
chain: B2 chain with E299Q
With B3 the “stoichiometry N” value (cryo-EM structure) was 12.

B4: CLPB^R178E (natural protein)
chain: B2 chain with R52E
B4: binds [2].

B5: CLPB^R227E (natural protein)
chain: B2 chain with R101E
B5: binds [2].

— article doi:10.1101/2022.03.10.483744 (bioRxiv, 2022)
